# Reference: patent US12551573B2, “Compositions and methods for the targeting of PCSK9” (Scribe Therapeutics Inc., priority 2022, dated 2026)
# Substitutions are numbered along the chain they refer to.
# B1: DOMAIN_31935 (protein, listed as Rhinolophus ferrumequinum)
# chain: EKIEDMAVSLIREEWLLDPSQKDLRRDNRTENYRNMFSLGGETRSENRELASKQVASAGVQPHGETAARCNGDVTGALEHGEARDLLGSRVERQRAN
# B2: DOMAIN_32223 (protein, listed as Homo sapiens)
# chain: GPQGARRQAFLAFGDVTVDFTQKEWRLLSPAQRALYREVTLENYSHLVSLGILHSKPELIRRLEQGEVPWGEERRRRPGP
# B3: DOMAIN_32327 (protein, listed as Homo sapiens)
# chain: NMSQASVSFQDVTVEFTREEWQHLGPVERTLYRDVMLENYSHLISVGYCITKPKVISKLEKGEEPWSLEDEFLNQRYPGY
# B4: DOMAIN_6398 (protein, listed as Gopherus agassizii)
# chain: MPVTFEEVAVYFTEGQGALLDPAQRALYRDVMQEIYEMVISLGFLLPKPDVIIQLERGEEPWVPDLQGSAEREMSRGTCAG
# B5: DOMAIN_4516 (protein, listed as Callithrix sp.)
# chain: MAAIPLKAQCQETVTFEDVAVHFTKTEWTGLSPAQRALYRSVMLENYGNLTAMGYLVPKPALISLLEGGDMAWGLEAQDDP
# B6: DOMAIN_6356 (protein, listed as Terrapene carolina)
# chain: MSVTFEDVAMYFSPAEWVLLGEEQKQLYRHVMWENYQTLVSLGIQISKPVVISSIERGEELWAQSPTEDEDEDILSGTSPG
# B7: DOMAIN_7184 (protein)
# chain: TQMQVKFDDIAVSFSQEEWKYLDEEQKELYREVMKENYQILISLGTGSSTTPKIISHIERGEEPYIRDEPVLVERKTGKSS
# modifications: Microcaecilia unicolor
# B8: DOMAIN_5188 (protein, listed as Aotus trivirgatus)
# chain: MITAQGPVSFRDVTVGFTQEEWQHLDPAQRTLYRDVMIENYSHLVSVGYCIPKPEVILKLEKGEEPWISEEKFPSQSHLEL
# B9: DOMAIN_3463 (protein, listed as Hylobates sp.)
# chain: MMTAVSLTTRPQESVAFEDVAVYFTAKEWDIMVPAERALYRDVMLENYEAVAFVVPPTSKPALVSHLEQGKESCFTRPQGV
# B10: DOMAIN_3328 (protein, listed as Hylobates sp.)
# chain: MGLVSFKDVAVDFTQEEWQQLDPSQRTLYRDVMLENYSHLVSMGYPVSKPDVISKLEQGEEPWIIKGDISNWIYPDEYQAD
# B11: DOMAIN_7183 (protein)
# chain: VQVPVTFEDVAVYFSEDEWGMLAGWQKELYKETMKENYETLTLLGCLSEKPSLISKIEREEDPCVRDQQDPRDRRKLRSSW
# modifications: Microcaecilia unicolor
# B12: DOMAIN_2629 (protein, listed as Pongo sp.)
# chain: MFPPARGKELLSFEDVAMYFTREEWGHLSWGQKDLYRDVMLENYRNMVLLGFQFPKPEVICQLENWDEQWILDLPRAGNRK
# B13: DOMAIN_4774 (protein, listed as Callithrix sp.)
# chain: HGSSYEGSVSFRDVAINFSREEWRHLDLSQRNLYWDVMLETYSHLLSVGYQFPKPEVVMLEQGNEPWALQGERPRHSCPGE
# B14: DOMAIN_7098 (protein)
# chain: QVPVIFEDVAVYFWEEEWEMLEEWQKELYKETMKENYKTLVSLGMELPTEKPDLIVRIEREENPCVKAQWDSRDKTRWRNS
# modifications: Microcaecilia unicolor
# B15: DOMAIN_5946 (protein, listed as Homo sapiens)
# chain: RQAFLAFGDVTVDFTQKEWRLLSPAQRALYREVTLENYSHLVSLGILHSKPELIRRLEQGEVPWGEERRRRPGPCAGIYAE
# B16: DOMAIN_6738 (protein)
# chain: FQTLLAFEDVAVFFSEEEWELLDELQKEVYKNTMRENYETLLSLGLTNMKPEIIAKIDAGEAPSVQNASYLEKRGKKSAAG
# modifications: Microcaecilia unicolor
# B17: DOMAIN_7109 (protein)
# chain: MRVTFEDIAVSFSQEEWEYLDEEQKELYREVMKENYQTLISLGAGSLTFTPEIISHIERGEEPYSRDEPGSGEREPGKSRC
# modifications: Microcaecilia unicolor
# B18: DOMAIN_6410 (protein, listed as Podarcis muralis)
# chain: GLVSFDEVSVHFTNEEWALLDPGQRALYEEVMEEIREMMTSVGDVSEFLTEGEQSEPSREGAEEQKEQRKQRVQVGTYRKE
# B19: DOMAIN_6433 (protein, listed as Podarcis muralis)
# chain: B18 chain with L2S, H11R, T13S, P57L, K80N
# B20: DOMAIN_6697 (protein, listed as Podarcis muralis)
# chain: B18 chain with L2S, H11R, T13S
# B21: DOMAIN_6737 (protein)
# chain: QMLVTFEDIAVSFSKEEWEYLDEGQKELYREVMKENYQTLISLGTGFPTVIPEIISHIEQGDEPGSEERENGKSSCSGESG
# modifications: Microcaecilia unicolor
# B22: DOMAIN_5440 (protein, listed as Aotus trivirgatus)
# chain: MAVDLLPAQESMTFRDVAVFFSQDEWLHLDSAQRALYREVMLENYSTLVSLGIPFSMPKVIHQLQQGQDPCMVEGEVPSDI
# B23: DOMAIN_6952 (protein, listed as Alligator mississippiensis)
# chain: DQLQEAFEDVALYFTQNEWELLGDGDKVLYRDQMLRNYQALVSLGYQGPAPDLISRIQRQEVELWVCEEENPGESVWTEGL
# B24: DOMAIN_2754 (protein, listed as Hylobates sp.)
# chain: MAGEAEAQLDPSLQGLVMFEDVTVYFSREEWGLLNVTQKGLYRDVMLENFALVSSLGLAPSRSPVFTQLEDDEQSWVPNWV
# B25: DOMAIN_737 (protein, listed as Pan paniscus)
# chain: MAFEDVAVYFSQEEWGLLDTAQRALYRRVMLDNFALVASLGLSTSRPRVVIQLERGEEPWVPSGTDTTLSRTTYRRRNPGS
# B26: DOMAIN_4121 (protein, listed as Macaca mulatta)
# chain: B25 chain with T68I, T72N
# B27: DOMAIN_5006 (protein, listed as Callithrix sp.)
# chain: B25 chain with G64E, T67M, L69M, T72N, Y74H
# B28: DOMAIN_4120 (protein, listed as Macaca mulatta)
# chain: MAFEDVAVYFSQEEWGLLDTAQRALYRHVMLENFTLVTSLGLSTSRPHVVIQLERGEEPWVPSGKDMTLARNTYRRLNAGS
# B29: DOMAIN_5005 (protein, listed as Callithrix sp.)
# chain: B28 chain with Q12E, H48L, E58D, G64V, T73A, R75G, L77R, N78T, A79T
# B30: DOMAIN_6472 (protein, listed as Alligator sinensis)
# chain: VVLLEAFEDVAVYFTQKEWALLDDGDKALYRDQMLRNYQALISLGYRGPTPALINRIQRGEMELWVCDKDYGEKSSLEGLF
# B31: DOMAIN_5125 (protein, listed as Callithrix sp.)
# chain: MPANEDTPQPGGHGSACEVSVSFEDVTVDFSREEWQQLDSTQRRLYQDVMLENYSHLLSVGFEVPKPEVIFKLEQGEGPWT
# B32: DOMAIN_2499 (protein, listed as Pongo sp.)
# chain: MNSEVIVDPIQGQVNFEDVFVYFSQEEWVLLDEAQRLLYRDVMLENFALMASLGHTSFMSHIGASLVMGSEPWVPDWVDMI
# B33: DOMAIN_3832 (protein, listed as Macaca mulatta)
# chain: TMSCSRAGGITGCIKYSTASVAFRDVAVDFTQEEWRLLSPAQRTLHREVMLETYNHLVSLEIPSSKPKLIAQLERGEEPWR
# B34: DOMAIN_2563 (protein, listed as Pongo sp.)
# chain: MGPQGARRQAFLAFGDVTVDFTQKEWRLLSPTQRALYREVTLENYSHLVSLGILHSKPELIRRLEQGEAPWGEERRRRPGP
# B35: DOMAIN_6938 (protein, listed as Alligator mississippiensis)
# chain: SKLPEAFEDVAVYFTRKEWELLEAGDKGLYQDQMLRNYQALVSLGLQGPAPDLICRMQLGEMELWVCDDEEAGESSLSEDF
# B36: DOMAIN_5791 (protein, listed as Homo sapiens)
# chain: EPGAVSFADVAVYFCREEWGCLRPAQRALYRDVMRETYGHLSALGIGGNKPALISWVEEEAELWGPAAQDPEVAKCQTQTD
# Tested on: HBEGF locus
# Format: cell-based, human
# Conditions: fold change in abundance of each repressor domain in the dXR library before vs after diphtheria toxin selection; dXR repression of the HBEGF gene; domains meeting p-value <0.01 and log2(fold change) >2
row,Molecule,Log2 (fold change)
1,B1,3.5544
2,B2,2.8836
3,B3,3.1024

# Same assay, conditions: high-throughput screen of dXR repression of the HBEGF gene; change in abundance of each domain in the library before and after diphtheria toxin selection
row,Molecule,Log2 (fold change)
1,B4,2.8238
2,B5,2.7603
3,B6,2.9197
4,B7,2.2019
5,B8,2.1842
6,B9,3.5462
7,B10,2.3718
8,B11,2.4918
9,B12,3.092
10,B13,2.8894
11,B14,2.7074
12,B15,3.2998
13,B16,2.9275
14,B17,2.9932
15,B18,2.7633
16,B19,3.0313
17,B20,2.6712

row,Molecule,Log2 (fold change)
1,B21,2.4861
2,B22,2.7871
3,B23,2.3403
4,B24,3.7601
5,B25,4.544
6,B26,3.3195
7,B27,3.8614
8,B28,3.3237
9,B29,2.8406
10,B30,2.9259
11,B31,2.911
12,B32,3.114
13,B33,2.7334
14,B34,2.8105
15,B35,2.6093
16,B36,2.6823
